Experimental data: article PMC8690526, “Expression, purification and characterisation of a human anti-CDK4 single-chain variable fragment antibody” (BMC Biotechnology, 2021)

What was measured:
Conditions in all cases: both partners purified
[1] = biological target: T1, recombinant human cyclin-dependent kinase 4 (Homo sapiens, UniProt P11802); assay: ELISA; non-competitive, affinity constant; plates coated with rhCDK4 at 8.0, 4.0, 2.0, 1.0 μg/mL; serial dilutions of AK2 (8.000-0.125 μg/mL); Kaff = (n − 1) / (n [Ab′] − [Ab]), n = [Ag] / [Ag′]; triplicates
T1 construct: cyclin-dependent kinase 4 (CDK4), human, recombinant; also called rhCDK4; CDK4
T1 sequence (P11802 whole entry): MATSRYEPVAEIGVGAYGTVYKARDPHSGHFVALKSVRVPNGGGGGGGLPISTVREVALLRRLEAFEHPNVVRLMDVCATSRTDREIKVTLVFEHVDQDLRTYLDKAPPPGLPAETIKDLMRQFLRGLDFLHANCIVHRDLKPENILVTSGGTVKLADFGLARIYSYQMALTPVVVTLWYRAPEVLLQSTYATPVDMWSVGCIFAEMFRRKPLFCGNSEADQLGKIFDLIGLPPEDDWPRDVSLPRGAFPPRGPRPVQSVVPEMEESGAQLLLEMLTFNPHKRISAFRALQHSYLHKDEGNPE

[2] = biological target: T2, recombinant human prolyl hydroxylase 2 (Homo sapiens, UniProt Q9GZT9); assay: ELISA; non-competitive; plates coated with rhCDK4 or irrelevant proteins (rhPHD2, rhCOX-2, BSA); purified AK2 10 μg/mL in 3% non-fat milk in PBST, 2 h; detection by anti-V5 tag antibody and HRP-conjugated IgG, A492
T2 construct: prolyl hydroxylase 2 (PHD2), human, recombinant; also called rhPHD2; PHD2
T2 sequence (Q9GZT9 whole entry): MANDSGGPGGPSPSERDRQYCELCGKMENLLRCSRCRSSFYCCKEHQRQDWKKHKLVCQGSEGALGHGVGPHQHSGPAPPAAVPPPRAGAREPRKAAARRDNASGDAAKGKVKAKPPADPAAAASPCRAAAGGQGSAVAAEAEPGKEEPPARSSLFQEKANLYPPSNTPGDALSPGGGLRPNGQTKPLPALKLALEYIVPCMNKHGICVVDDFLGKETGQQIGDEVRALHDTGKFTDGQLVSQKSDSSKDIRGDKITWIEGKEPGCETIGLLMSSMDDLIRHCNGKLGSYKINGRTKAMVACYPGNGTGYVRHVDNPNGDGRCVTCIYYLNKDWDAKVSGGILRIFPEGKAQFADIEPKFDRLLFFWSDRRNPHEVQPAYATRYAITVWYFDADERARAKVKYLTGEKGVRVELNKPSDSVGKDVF

bovine serum albumin = biological target: T3, bovine serum albumin (Bos taurus, UniProt P02769); assay: as above
T3 construct: serum albumin, bovine; also called BSA
T3 sequence (P02769 25-607): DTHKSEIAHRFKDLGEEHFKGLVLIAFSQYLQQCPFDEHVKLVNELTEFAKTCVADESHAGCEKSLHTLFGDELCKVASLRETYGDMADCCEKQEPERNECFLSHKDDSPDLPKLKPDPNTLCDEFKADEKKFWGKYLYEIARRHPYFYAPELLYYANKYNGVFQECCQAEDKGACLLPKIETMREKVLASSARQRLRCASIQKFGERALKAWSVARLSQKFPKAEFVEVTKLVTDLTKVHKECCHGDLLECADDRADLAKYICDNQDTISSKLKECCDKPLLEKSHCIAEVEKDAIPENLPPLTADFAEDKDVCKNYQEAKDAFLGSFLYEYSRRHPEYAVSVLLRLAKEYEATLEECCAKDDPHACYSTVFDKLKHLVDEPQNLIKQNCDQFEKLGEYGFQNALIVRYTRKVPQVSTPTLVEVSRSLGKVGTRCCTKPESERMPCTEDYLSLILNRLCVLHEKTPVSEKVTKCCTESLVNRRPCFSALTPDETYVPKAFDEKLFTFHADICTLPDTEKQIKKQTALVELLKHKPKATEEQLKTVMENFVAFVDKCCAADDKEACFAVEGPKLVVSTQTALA

B1: human anti-CDK4 single-chain variable fragment antibody AK2 (scFv, V domains shown)
VH: QVQLQESGGGLVQPGGSLRLSCAASGFTFSSYAMSWVRQAPGKGLEWVSAISGSGGSTYYADSVEGRFTISRDNSKNTLYLQMNSLRAEDTAVYYCARRLTGFDYWGQGTLVTVSS
VL: QSALTQPPSASGSPGQSVTISCTGTSSDVGGYNYVSWYQQHPGKAPKLMIYDVSKRPSGVSNRFSGSKSGNTASLTIFGLQAEDEADYYCSSYTSSSTLVFGGGTKLTVL
notes: AK2-VH; linker peptide between the variable regions; AK2-VL; A pelB leader stands upstream of AK2 in the phagemid; About 30 kD on SDS-PAGE; also called soluble AK2; purified AK2; source: E. coli HB2151 (AK2/HB2151), IPTG-induced, secreted into the culture supernatant; used as culture supernatant or purified (ammonium sulphate precipitation, Ni2+-NTA, PD-10 desalting); …
Ka [1]: 2.48e+07 M⁻¹
binding result [2]: no binding (tested: 10 μg/mL AK2)
binding result (bovine serum albumin): no binding (tested: 10 μg/mL AK2)
